Measured values as given in patent publication US7521536B2, “Glutamate transporter associated protein” (The Johns Hopkins University School of Medicine, priority 1999, dated 2009).

T1: EAAT4 (Rattus norvegicus, UniProt O35921)
T1 sequence (O35921 1-561): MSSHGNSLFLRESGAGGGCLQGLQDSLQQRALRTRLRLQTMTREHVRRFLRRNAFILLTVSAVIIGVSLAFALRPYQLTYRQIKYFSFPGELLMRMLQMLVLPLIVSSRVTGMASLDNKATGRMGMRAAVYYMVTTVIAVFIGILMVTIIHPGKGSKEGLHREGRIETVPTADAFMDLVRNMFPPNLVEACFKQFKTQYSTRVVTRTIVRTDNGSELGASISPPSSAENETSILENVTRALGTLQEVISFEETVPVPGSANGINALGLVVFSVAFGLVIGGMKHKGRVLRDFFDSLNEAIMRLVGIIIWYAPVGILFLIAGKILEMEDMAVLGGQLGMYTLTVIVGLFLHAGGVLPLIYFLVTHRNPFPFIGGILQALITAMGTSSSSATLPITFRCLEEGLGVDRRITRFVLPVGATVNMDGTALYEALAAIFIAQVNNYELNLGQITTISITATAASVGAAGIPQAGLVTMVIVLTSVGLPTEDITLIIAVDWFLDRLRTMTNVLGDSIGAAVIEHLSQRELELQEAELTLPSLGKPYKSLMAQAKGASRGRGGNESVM

T2: GST-EAAT4 (Rattus norvegicus, UniProt O35921)
T2 construct: Full-length EAAT4 was subcloned into the EcoR I site of the GST-fusion vector pGEX-6P-1 (Pharmacia); made in house; host or cells: E. coli BL21 (Novagen)
T2 sequence (O35921 1-561): T1 sequence (O35921 1-561)

T3: GST-EAAC1 (Rattus norvegicus, UniProt P51907)
T3 construct: made in house; BL21 is described for GST-EAAT4
T3 sequence (P51907 1-523): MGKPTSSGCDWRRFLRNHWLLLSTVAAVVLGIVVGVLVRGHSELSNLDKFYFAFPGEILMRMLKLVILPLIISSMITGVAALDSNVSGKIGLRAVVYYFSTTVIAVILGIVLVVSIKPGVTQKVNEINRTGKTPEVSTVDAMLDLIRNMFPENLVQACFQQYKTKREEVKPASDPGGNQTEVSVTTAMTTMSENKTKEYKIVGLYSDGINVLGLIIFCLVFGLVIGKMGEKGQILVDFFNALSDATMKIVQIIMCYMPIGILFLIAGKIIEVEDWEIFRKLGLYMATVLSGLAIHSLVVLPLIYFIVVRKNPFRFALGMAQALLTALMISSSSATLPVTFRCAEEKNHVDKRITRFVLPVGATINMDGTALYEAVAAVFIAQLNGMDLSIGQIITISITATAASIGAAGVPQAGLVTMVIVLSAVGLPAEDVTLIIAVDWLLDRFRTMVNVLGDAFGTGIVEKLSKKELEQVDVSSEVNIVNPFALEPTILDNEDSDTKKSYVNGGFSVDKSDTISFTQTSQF

T4: EAAC1 (Rattus norvegicus, UniProt P51907)
T4 construct: For transient expression in HEK 293T cells, full-length EAAC1 cDNA was subcloned into the EcoR I/BamH I site; expressed in transfected cells; host or cells: HEK293 / HEK 293T, transient, pRK5
T4 sequence (P51907 1-523): T3 sequence (P51907 1-523)

B1: GTRAP3-18: glutamate transporter EAAC1 associated protein, 188 amino acids (SEQ ID NO:6), rat JWA protein homologue (protein)
chain: MDVNLAPLRAWDDFFPGSDRFARPDFRDISKWNNRVVSNLLYYQTNYLVVAAMMISVVGFLSPFNMILGGIIVVLVFTGFVWAAHNKDILRRMKKQYPTAFVMVVMLASYFLISMFGGVMVFVFGITFPLLLMFIHASLRLRNLKNKLENKMEGIGLKKTPMGIILDALEQQEDSINKFADYISKARE
modifications: Rattus

Tests used:
EAAT4 [1] = assay: EAAT4 protein level after cycloheximide treatment, densitometry, HEK-rEAAT4 cells; format: cell-based, rat; details: 12 hrs after cycloheximide, GTRAP coexpressed; HEK-rEAAT4 alone 54±0.6%
Protocol: To examine changes in the cell surface levels of EAAT4, a cell membrane-impermeant biotinylation reagent to label cell surface proteins selectively. Biotinylation of cell surface proteins was performed as described in Duan et al. (Duan, et al., J. Neurosci. 19, 10193-10200 (1999)). SOD1 was used to control for total protein and to determine whether the biotinylation reagent labels proteins in the intracellular compartment. Densitometry was performed using the NIH Image program.
However it is also possible that there is increased expression of the cell's native gene. To address this question cells were treated 48 hrs after transfection with cycloheximide, an inhibitor of protein synthesis. […] In contrast, 81±2% and 74±1.7% of the EAAT4 protein remains after 12 hrs when GTRAP4-41 and GTRAP4-48 are coexpressed, respectively.

EAAT4 [2] = molecular target: T1, EAAT4; assay: Na+-dependent L-[3H]-glutamate uptake in HEK-rEAAT4 cells transfected with GTRAPs; format: cell-based; set-up: expressed in transfected cells
Protocol: To determine function relationships between GTRAPs and glutamate transporter proteins, sodium-dependent, glutamate transport activity was measured in HEK-rEAAT4 cells transfected with one or more interacting proteins.
To determine the effects of GTRAPs on glutamate transport function, Na+-dependent glutamate transport activity was measured in cells stably transfected with EAAT4, EAAC1, or another glutamate transporter protein and one or more interacter proteins. Stably transfected cells were grown in a monolayer on 6-well plates in MEM supplemented with 10% fetal bovine serum and L-glutamine. Assays were conducted when cells reached ˜80% confluency. The wells were pre-rinsed twice with 2 ml of ice-cold tissue buffer (50 mM Tris, 320 mM sucrose, pH 7.4). The cells were then incubated for 4 min at 37° C. with 1 ml of either sodium-(120 mM NaCl, 25 mM NaHCO3, 5 mM KCl, 2 mM CaCl2, 1 mM KH2PO4, 1 mM MgSO4, 10% glucose and […]) or choline-(120 mM choline Cl, 25 mM Tris-HCl pH 7.4, 5 mM KCl, 2 mM CaCl2, 1 mM KH2PO4, 1 mM MgSO4, 10% glucose and […]) containing buffer labeled with L-[^3H]Glu. Uptake was stopped by rinsing three times with 2 ml of ice-cold wash buffer (50 mM Tris pH 7.5 and 160 mM NaCl). Cells were solubilized in 1 ml of 0.1 N NaOH, and […] of lysate was analyzed for radioactivity in a scintillation counter. Na^+-dependent uptake was defined as the difference in radioactivity accumulated in Na^+-containing buffer and in choline-containing buffer. Protein content was measured and glutamate uptake calculated as nmole glutamate per mg of protein. In some cases, homogenates were examined for EAAT4, GTRAP4-41 and GTRAP 4-48 protein.
In an alternative protocol, HEK-rEAAT4 cells transfected with GTRAP4-41 and GTRAP4-48 were grown in a monolayer on 6-well plates in MEM supplemented with 10% fetal bovine serum and L-glutamine. Assays were conducted about 72 h after transfection using the method of Davis (Davis et al., J Neurosci. 18, 2475-2485 (1998)). […] Glutamate transport was measured by methods described herein.

EAAT4 [3] = assay: cerebellar glutamate uptake after intra-cisternal injection of HSV amplicon vectors; format: in vivo, rat; details: 48 hrs after intra-cisternal injection of HSV amplicon vector, vs control HSVlac
GST-EAAT4 = molecular target: T2, GST-EAAT4; assay: in vitro binding to GST-EAAT4 fusion protein; details: myc-tagged protein from HEK 293T lysate; no binding to GST
Protocol: Fusion proteins and in vitro binding. Full-length EAAT4 was subcloned into the EcoR I site of the GST-fusion vector pGEX-6P-1 (Pharmacia). Synthesis of recombinant proteins in BL21 cells (Novagen) was induced by 0.1 mM isopropyl β-D-thiogalactoside for 2 hrs at 30° C. and purified according to the protocol provided by the manufacturer (Pharmacia). HEK 293T cells were transfected with myc-tagged GTRAP4-41 or GTRAP4-48 and harvested in ice-cold immunoprecipitation (IP) buffer (phosphate buffered saline (pH 7.1), 5 mM EDTA, 1 mM sodium orthovanadate, 0.1 mM phenylmethylsulphonyl fluoride (PMSF), 0.3 μM aprotinin and 1% Triton X-100). The cellular lysate was incubated with GST or GST-EAAT4 immobilized on glutathione-Sepharose-4B, and washed to remove non-specifically bound proteins. Specifically bound proteins were eluted with 2×SDS loading buffer and analyzed by immunoblotting using an anti-c-myc antibody.
GTRAP4-41 and 4-48 Immunoprecipitation with Fusion Proteins. Full-length EAAT4 was subcloned into the EcoR I site of the GST-fusion vector pGEX-6P-1 (Pharmacia). […] Specifically bound proteins were eluted with 3×SDS loading buffer and analyzed by immunoblotting using an anti-c-myc antibody. […]

GST-EAAC1 = molecular target: T3, GST-EAAC1; assay: in vitro cell-free binding to immobilized GST-EAAC1; details: [35S]-labeled protein; not to GST alone
Protocol: The interaction of GTRAP3-18 with EAAC1 was examined using in vitro and in vivo methods. For in vitro cell-free binding, EAAC1 was expressed as a fusion protein with glutathione S-transferase (GST), and GTRAP3-18 was produced and labeled with [^35S]-methionine by in vitro transcription and translation. Purified GST or GST-EAAC1 fusion proteins immobilized on glutathione-Sepharose were incubated with [^35S]-labeled GTRAP3-18 protein.

EAAT4 [4] = molecular target: T1, EAAT4; assay: sodium-dependent [3H]-glutamate transport in HEK293 cells co-expressing EAAT4 and GTRAP3-18; format: cell-based
Text: (§1) To test if GTRAP3-18 modulates EAAC1 function, sodium-dependent [^3H]-glutamate transport was studied in HEK293 cells co-expressing both proteins, 72 hrs after transfection (Rothstein et al. Neuron 16, 675-686 (1996); Lin et al., Neuron 20, 589-602 (1998)). Total glutamate transport progressively decreases with increasing GTRAP3-18 protein expression (FIG. 4). GTRAP3-18 negatively modulates EAAC1-mediated glutamate transport. GTRAP3-18 inhibited EAAC1-mediated transport, but had no effect on EAAT4 (n=6). The co-expression of GTRAP-3-18 has no effect on total EAAC1 protein expression. Analysis of HEK293 cells by confocal microscopy and surface biotinylation reveal no alteration in the membranous localization of EAAC1. Superoxide dismutase (SOD1) was used as a control. […] This effect is specific for EAAC1; co-expression of GTRAP3-18 with EAAT4 has no effect on transport activity. The inhibition of transport is not due to a decrease of EAAC1 protein level by the co-expression of GTRAP3-18, as quantitated by Western blotting. Similarly, the loss of EAAC1 activity is not due to altered protein trafficking; even at high levels of GTRAP3-18 expression, when little EAAC1-mediated transport is observed, EAAC1 surface expression is unaltered as determined by surface biotinylation and confocal microscopy.

EAAC1 = molecular target: T4, EAAC1; assay: sodium-dependent [3H]-glutamate transport in HEK293 cells co-expressing EAAC1 and GTRAP3-18; format: cell-based
Text: as §1
To evaluate the biochemical nature of altered transport, kinetic analyses were performed with HEK293 cells co-expressing EAAC1 and GTRAP3-18. […] Similar results are observed with other cell lines (COS7 and C6 glioma).

Molecule	EAAT4 protein remaining (EAAT4 [1]) [%]	Km (EAAT4 [2]; GTRAP co-expressed with EAAT4, EAAT4 alone 7 (GTRAP41 experiment) or 10 (GTRAP48 experiment)) [µM]	Vmax of glutamate uptake (EAAT4 [2]; GTRAP co-expressed with EAAT4, EAAT4 alone 222 (GTRAP41 experiment) or 208 (GTRAP48 experiment)) [pmol/mg/min]	increase in glutamate transport (EAAT4 [2]; HEK-rEAAT4 cells transfected with the GTRAP, vs vector alone)	cerebellar glutamate uptake (EAAT4 [3])	binding to GST-EAAT4 fusion protein (GST-EAAT4)	binding to immobilized GST-EAAC1 (GST-EAAC1)	effect on EAAT4 glutamate transport (EAAT4 [4])	Vmax of glutamate transport (EAAC1; EAAC1 and GTRAP3-18 co-expressing cells, EAAC1 only 1.02) [nmol/min/mg protein]	Km (EAAC1; EAAC1 and GTRAP3-18 co-expressing cells, EAAC1 only Km=9 μM, n=4) [µM]	effect on EAAC1-mediated glutamate transport (EAAC1; HEK293 cells, 72 hrs after transfection, n=6)	decrease in affinity (Eadie-Scatchard plot of glutamate transport) (EAAC1; transfected HEK293 cells, n=4)
GTRAP4-41: glutamate transporter 4 associated protein, 2,388 amino acids (SEQ ID NO:2), 87% identity with β-spectrin III	81±2	11	605	two	elevated	bind						
B1							specifically binds	no effect	0.99	40	inhibited	4-10 fold
